Experimental data reported in article PMC6237275.

Target: His–CtBP1 (UniProt Q13363)
Test: SEC

- stoichiometry N: 2
Substance: His–CtBP1 (from UniProt Q13363 1-440) (natural protein)
